Reference: article PMC6213131, “Characterization of Properties and Transglycosylation Abilities of Recombinant α-Galactosidase from Cold-Adapted Marine Bacterium Pseudoalteromonas KMM 701 and Its C494N and D451A Mutants” (Marine Drugs, 2018)

B1: α-PsGal (Pseudoalteromonas sp. KMM 701) (protein)
chain: MADTKSFYRLDSVNSTVIFDCQSKTPALLYFGKRLSEQTTETMLTQLATRQEVKCAVVEEAPISLSPLLGEGFTGAPGLELVNDSIAWSVGPELQEVRQPSSATVEFVSVDKLRGIEVVHSITLDNNSDVLSAHTVLTNLGDSPLSVNFCAAPTFQLPDSVSKIVSFEGRWSNEFQRQSVDLVLGSFVRENRKGKTSHDVFPGLLVHNENAGEQHGECYGFHLGWSGNNKLRAELLAEGRRYVQMGELLLPGELTLAKGQTYQSPSIYGSFSSEGFSALSRNFHRFVKANLLSQAQREKARPVHYNTWEGIYFDHDVDTLKQLADKVAPLGIERFVLDDGWFKGRRGDNAGLGDWTVDYKIYPDGLSPVIDHVNSLGMEFGIWFEPEMVNPDSDLYRAHPDWVLGSENNEQLSFRNQLVLDLTRSEVVEYLYKAIDDILVEYPTIKYIKWDMNRDINHAGNFDGKPAVHQQTLALYRLIDRIKAAHPGLEIESCSSGGARVDYGVLAHTDRVWTSDSNDALDRLEIQRGCSFFFPSSVMGAHVGPRDCHITGRNVSIEMRAAVSMFGHMGIEMDPRELNDHEYNALKAAIALHKEHREFIHSADLYRLDSDDLSINFGLIDAQKTKALFAYNSVRETPRTAPNKLRFVGLDADAQYTLNLVWPVKFEEYRPSSIAAVNGQTFTGEALMQFGLQMPISFPQTSLIFELNKA
notes: mature ca. 80 kDa; E. coli Rosetta (DE3); GH36
B2: α-PsGal (Pseudoalteromonas sp. KMM 701; C494N) (protein)
chain: MADTKSFYRLDSVNSTVIFDCQSKTPALLYFGKRLSEQTTETMLTQLATRQEVKCAVVEEAPISLSPLLGEGFTGAPGLELVNDSIAWSVGPELQEVRQPSSATVEFVSVDKLRGIEVVHSITLDNNSDVLSAHTVLTNLGDSPLSVNFCAAPTFQLPDSVSKIVSFEGRWSNEFQRQSVDLVLGSFVRENRKGKTSHDVFPGLLVHNENAGEQHGECYGFHLGWSGNNKLRAELLAEGRRYVQMGELLLPGELTLAKGQTYQSPSIYGSFSSEGFSALSRNFHRFVKANLLSQAQREKARPVHYNTWEGIYFDHDVDTLKQLADKVAPLGIERFVLDDGWFKGRRGDNAGLGDWTVDYKIYPDGLSPVIDHVNSLGMEFGIWFEPEMVNPDSDLYRAHPDWVLGSENNEQLSFRNQLVLDLTRSEVVEYLYKAIDDILVEYPTIKYIKWDMNRDINHAGNFDGKPAVHQQTLALYRLIDRIKAAHPGLEIESNSSGGARVDYGVLAHTDRVWTSDSNDALDRLEIQRGCSFFFPSSVMGAHVGPRDCHITGRNVSIEMRAAVSMFGHMGIEMDPRELNDHEYNALKAAIALHKEHREFIHSADLYRLDSDDLSINFGLIDAQKTKALFAYNSVRETPRTAPNKLRFVGLDADAQYTLNLVWPVKFEEYRPSSIAAVNGQTFTGEALMQFGLQMPISFPQTSLIFELNKA
notes: as for B1

Substrate: O=[N+]([O-])c1ccc(O[C@H]2O[C@H](CO)[C@H](O)[C@H](O)[C@H]2O)cc1
Assay: purified protein
Type: biochemical, Pseudoalteromonas sp. KMM 701
Details: sodium phosphate (0.05 M in table footnote, 0.1 M in methods), pH 7.0, 20 °C

| Protein | Km [µM] | Vmax [µM/min] | kcat [s⁻¹] | kcat/Km [M⁻¹ s⁻¹] |
| --- | --- | --- | --- | --- |
| B1 | 400 ± 30 | 320 | 324 ± 3.5 | 820000 |
| B2 | 300 ± 5 | 24 | – | – |
